{
  "source": "patent US20170129954A1",
  "about": "(PROTHENA BIOSCIENCES, published 2017)",
  "binders": {"B1": {"name": "Chimeric 1749 (antibody, V domains shown)", "VH": "DVKLVESGGDLVKPGGSLKLSCAASGFTFSSYIMSWVRQTPEKRLEWVATISSGGSSTYYPDSVKGRFTISRDNAKNTLYLQMSSLKSEDTAMYYCTRDDDYDVKVFAYWGQGTLVTVSA", "VL": "DIVMSQSPSSLAVSAGEKVTMNCKSSRSLLNSRIRKNYLAWYQQKPGQSPKLLIYWASTRESGVPDRFTGSGSGTDFTLTISSVQAEDLAVYYCKQSYNLLTFGAGTKLELK", "notes": "also called ch1749"}, "B2": {"name": "Human 1749VH3VL3 (Hu1749VHv3 and Hu1749VLv3) (antibody, V domains shown)", "VH": "B1 VH with D1E, D10G, K13Q, K19R, A120S", "VL": "DIVMTQSPSSLAVSLGERVTINCKSSRSLLNSRIRKNYLAWYQQKPGQSPKLLIYWASTRESGVPDRFSGSGSGTDFTLTISSLQAEDVAVYYCKQSYNLLTFGQGTKVEIKR", "notes": "also called hu1749VH3VL3; hu1749H3L3"}, "B3": {"name": "human MCAM, full length, expressed on transfected cells (receptor)", "chain": "VPGEAEQPAPELVEVEVGSTALLKCGLSQSQGNLSHVDWFSVHKEKRTLIFRVRQGQGQSEPGEYEQRLSLQDRGATLALTQVTPQDERIFLCQGKRPRSQEYRIQLRVYKAPEEPNIQVNPLGIPVNSKEPEEVATCVGRNGYPIPQVIWYKNGRPLKEEKNRVHIQSSQTVESSGLYTLQSILKAQLVKEDKDAQFYCELNYRLPSGNHMKESREVTVPVFYPTEKVWLEVEPVGMLKEGDRVEIRCLADGNPPPHFSISKQNPSTREAEEETTNDNGVLVLEPARKEHSGRYECQAWNLDTMISLLSEPQELLVNYVSDVRVSPAAPERQEGSSLTLTCEAESSQDLEFQWLREETDQVLERGPVLQLHDLKREAGGGYRCVASVPSIPGLNRTQLVKLAIFGPPWMAFKERKVWVKENMVLNLSCEASGHPRPTISWNVNGTASEQDQDPQRVLSTLNVLVTPELLETGVECTASNDLGKNTSILFLELVNLTTLTPDSNTTTGLSTSTASPHTRANSTSTERKLPEPESRGVVIVAVIVCILVLAVLGAVLYFLYKKGKLPCRRSGKQEITLPPSRKTELVVEVKSDKLPEEMGLLQGSSGDKRAPGDQGEKYIDLRH", "notes": "also called CD146; MUC18"}, "B4": {"name": "human MCAM I141A single mutant displayed on mammalian cells (receptor)", "chain": "B3 chain with I118A"}, "B5": {"name": "human MCAM D216A single mutant displayed on mammalian cells (receptor)", "chain": "B3 chain with D193A"}, "B6": {"name": "human MCAM Y318A single mutant displayed on mammalian cells (receptor)", "chain": "B3 chain with Y295A", "notes": "also called Y318A mutant"}},
  "key": {"[1]": {"biological_target": "T1, human MCAM (antigen of the BLI kinetics in Example 7) (human, UniProt P43121 24-559, limits assumed)", "T1 chain": "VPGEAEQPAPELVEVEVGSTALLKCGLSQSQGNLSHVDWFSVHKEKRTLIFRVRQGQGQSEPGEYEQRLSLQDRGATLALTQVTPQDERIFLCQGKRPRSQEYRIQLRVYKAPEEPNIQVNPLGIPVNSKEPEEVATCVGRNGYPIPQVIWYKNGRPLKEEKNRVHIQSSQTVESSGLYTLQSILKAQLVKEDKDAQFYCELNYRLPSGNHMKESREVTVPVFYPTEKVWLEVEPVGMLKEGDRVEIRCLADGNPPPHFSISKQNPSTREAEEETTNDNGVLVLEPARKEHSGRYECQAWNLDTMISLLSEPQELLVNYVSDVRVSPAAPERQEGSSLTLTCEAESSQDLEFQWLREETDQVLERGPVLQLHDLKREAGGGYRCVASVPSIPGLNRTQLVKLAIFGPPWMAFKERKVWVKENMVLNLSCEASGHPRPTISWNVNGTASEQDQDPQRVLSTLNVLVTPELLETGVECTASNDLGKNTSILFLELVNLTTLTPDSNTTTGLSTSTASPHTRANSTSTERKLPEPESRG", "assay": "BLI, ForteBio Octet QK, apparent KD", "text": "(§1) Apparent ka, apparent kd and apparent KD are binding kinetic parameters obtained using ForteBio assay formats."}, "[2]": {"biological_target": "T1, human MCAM (antigen of the BLI kinetics …)", "assay": "BLI, ForteBio Octet QK, apparent kd", "text": "as §1"}, "[3]": {"biological_target": "T1, human MCAM (antigen of the BLI kinetics …)", "assay": "BLI, ForteBio Octet QK, apparent ka", "text": "as §1"}, "recombinant laminin 511": {"biological_target": "T2, recombinant laminin 511 (UniProt O15230 36-3695; P07942 22-1786; P11047 34-1609)", "T2 construct": "also called laminin 10 (α5β1γ1)", "assay": "flow cytometry with pan-laminin antibody on CHO cells transfected with human MCAM"}, "laminin α-4": {"biological_target": "laminin α-4 (UniProt Q16363 25-1823)", "sequence (Q16363 25-1823)": "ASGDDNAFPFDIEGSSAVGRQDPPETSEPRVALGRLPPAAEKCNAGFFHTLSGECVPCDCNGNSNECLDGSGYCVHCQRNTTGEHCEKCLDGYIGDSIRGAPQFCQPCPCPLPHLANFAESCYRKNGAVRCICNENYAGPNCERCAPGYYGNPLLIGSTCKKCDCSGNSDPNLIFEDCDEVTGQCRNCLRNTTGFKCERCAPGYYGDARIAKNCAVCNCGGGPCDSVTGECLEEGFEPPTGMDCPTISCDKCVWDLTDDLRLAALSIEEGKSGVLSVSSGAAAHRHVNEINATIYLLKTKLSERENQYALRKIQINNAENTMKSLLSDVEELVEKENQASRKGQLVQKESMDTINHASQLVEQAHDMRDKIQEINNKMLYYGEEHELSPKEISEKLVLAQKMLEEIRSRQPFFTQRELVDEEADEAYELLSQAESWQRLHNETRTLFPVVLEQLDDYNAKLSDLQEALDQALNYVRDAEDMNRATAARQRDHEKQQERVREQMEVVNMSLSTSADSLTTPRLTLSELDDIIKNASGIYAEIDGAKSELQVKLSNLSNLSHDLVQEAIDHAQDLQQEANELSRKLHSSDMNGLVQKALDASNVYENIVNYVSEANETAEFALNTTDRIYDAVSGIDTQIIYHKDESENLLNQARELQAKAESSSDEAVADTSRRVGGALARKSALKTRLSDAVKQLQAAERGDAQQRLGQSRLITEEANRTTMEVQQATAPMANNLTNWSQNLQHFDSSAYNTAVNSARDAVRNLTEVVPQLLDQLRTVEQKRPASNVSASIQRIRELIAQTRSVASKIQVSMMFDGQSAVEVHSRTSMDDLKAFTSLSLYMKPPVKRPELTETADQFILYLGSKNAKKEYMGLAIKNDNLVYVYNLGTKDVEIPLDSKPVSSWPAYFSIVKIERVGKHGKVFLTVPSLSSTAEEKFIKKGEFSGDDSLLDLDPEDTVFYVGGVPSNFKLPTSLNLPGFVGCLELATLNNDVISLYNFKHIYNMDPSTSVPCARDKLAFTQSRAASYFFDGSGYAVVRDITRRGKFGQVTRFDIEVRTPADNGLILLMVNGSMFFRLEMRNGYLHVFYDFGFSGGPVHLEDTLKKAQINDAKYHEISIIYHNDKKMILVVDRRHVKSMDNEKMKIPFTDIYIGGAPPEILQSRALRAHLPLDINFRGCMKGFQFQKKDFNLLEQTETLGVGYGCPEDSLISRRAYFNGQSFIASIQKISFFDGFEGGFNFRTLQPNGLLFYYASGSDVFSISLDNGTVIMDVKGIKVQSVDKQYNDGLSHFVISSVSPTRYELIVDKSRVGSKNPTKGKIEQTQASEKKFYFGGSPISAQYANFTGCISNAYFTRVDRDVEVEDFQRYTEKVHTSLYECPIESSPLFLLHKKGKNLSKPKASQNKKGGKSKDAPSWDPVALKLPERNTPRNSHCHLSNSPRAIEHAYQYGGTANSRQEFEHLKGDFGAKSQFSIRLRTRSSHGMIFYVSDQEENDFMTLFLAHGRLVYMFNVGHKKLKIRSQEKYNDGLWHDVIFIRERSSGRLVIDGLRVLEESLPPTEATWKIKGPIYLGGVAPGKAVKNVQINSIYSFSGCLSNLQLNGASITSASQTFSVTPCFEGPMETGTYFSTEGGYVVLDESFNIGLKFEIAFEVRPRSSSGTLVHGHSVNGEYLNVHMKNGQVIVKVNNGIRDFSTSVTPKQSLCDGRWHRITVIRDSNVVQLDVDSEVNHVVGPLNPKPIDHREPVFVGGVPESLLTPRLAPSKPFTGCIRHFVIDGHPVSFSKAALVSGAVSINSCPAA", "assay": "FACS on mammalian cells displaying the mutant", "text": "Twenty point mutants based on the structure information and shotgun mutagenesis information were designed and generated."}},
  "note": "Positions count from the first letter of the chain named. In names and notes the source's numbering stands.",
  "data": [
    {"binder": "B1", "values": [
      {"measurement": "Kd", "setting": "[1]", "result": 0.226, "unit": "nM"},
      {"measurement": "koff", "setting": "[2]", "result": 0.000439, "unit": "s⁻¹"},
      {"measurement": "kon", "setting": "[3]", "result": "1.94e+06", "unit": "M⁻¹ s⁻¹"}
    ]},
    {"binder": "B2", "values": [
      {"measurement": "Kd", "setting": "[1]", "result": 0.221, "unit": "nM"},
      {"measurement": "koff", "setting": "[2]", "result": 0.00044, "unit": "s⁻¹"},
      {"measurement": "kon", "setting": "[3]", "result": "1.99e+06", "unit": "M⁻¹ s⁻¹"}
    ]},
    {"binder": "B3", "values": [
      {"measurement": "binding result", "setting": "recombinant laminin 511", "result": "no binding (tested: 10 µg/ml)"}
    ]},
    {"binder": "B4", "values": [
      {"measurement": "binding result", "setting": "laminin α-4", "result": "no binding"}
    ]},
    {"binder": "B5", "values": [
      {"measurement": "binding result", "setting": "laminin α-4", "result": "no binding"}
    ]},
    {"binder": "B6", "values": [
      {"measurement": "binding result", "setting": "laminin α-4", "result": "no binding"}
    ]}
  ]
}
